Assay [1] deals with Hck SH3 (Homo sapiens) (UniProt P08631). The following applies: cited from earlier work.
For assay [2] the target is unchanged. The following applies: cited from earlier work. This is another data set of the same source.
Assay [3] has as its target GST-Fyn SH3 domain fusion protein (wild type) (UniProt P06241). Briefly: SPR; Biacore 3000, HBS buffer (10 mM Hepes-NaOH pH 7.4, 150 mM NaCl, 0.005% Tween-20), 25°C; GST-SH3 captured on CM5 chip via amine-coupled anti-GST antibody; NS5A 3 μM - 100 nM flowed over, in triplicate; 1:1 Langmuir fit.

These results are taken from paper PMC2259325.

One may read the Kd as the free concentration of one partner at which half of the binding sites on the other are occupied at equilibrium, for simple one-to-one binding. Broadly, the koff is the rate constant with which the complex falls apart. A high value points to fast dissociation. One may read the kon as a measure of how fast the partners come together. The low end stands for slow association, the high end for fast association.

Read-outs that look alike come from different tables or passages of the source.

Chain of GST-Fyn SH3 domain fusion protein (wild type) (P06241 82-143): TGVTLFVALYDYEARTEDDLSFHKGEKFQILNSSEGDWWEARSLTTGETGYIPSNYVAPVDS
Chain of Hck SH3 (Homo sapiens) (P08631 75-141): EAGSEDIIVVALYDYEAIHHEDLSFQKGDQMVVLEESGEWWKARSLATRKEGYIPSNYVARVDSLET

Take Nef (from UniProt P04324): the Kd in assay [1] is 0.25 µM.

As to “Nef PxxPxR-containing peptide PxxPxR peptide (from UniProt P04324)”, in assay [2], the Kd is 91 µM.

As for “NS5A(Δ250), N-terminally truncated hepatitis C virus non-structural 5A protein (domain or fragment)”, in assay [3], the koff came out at 0.00494 s⁻¹ and the kon is 9050 M⁻¹ s⁻¹.
